Laboratory results from patent publication US11795460B2, “Compositions and methods for TTR gene editing and treating ATTR amyloidosis” (Intellia Therapeutics, Inc., priority 2017, dated 2023).
Strand notation (5' to 3'): a small letter for the sugar, then the base; units joined by * are phosphorothioate-linked, units joined directly phosphodiester-linked; [ ] holds rarer units or linkages, { } end groups; capitals alone tell only the bases. m = 2'-O-methyl; r = 2'-OH (RNA)

B1: G000480: TTR sgRNA modified sequence, Human, SEQ ID No. 87; guide sequence of CR003353 (nucleic acid)
guide: mA*mA*mA*rGrGrCrUrGrCrUrGrArUrGrArCrArCrCrUrGrUrUrUrUrArGrAmGmCmUmAmGmAmAmAmUmAmGmCrArArGrUrUrArArArArUrArArGrGrCrUrArGrUrCrCrGrUrUrArUrCrAmAmCmUmUmGmAmAmAmAmAmGmUmGmGmCmAmCmCmGmAmGmUmCmGmGmUmGmCmU*mU*mU*mU
B2: G000481: TTR sgRNA modified sequence, Human, SEQ ID No. 88; guide sequence of CR003345 (nucleic acid)
guide: mU*mC*mU*rArGrArArCrUrUrUrGrArCrCrArUrCrArGrGrUrUrUrUrArGrAmGmCmUmAmGmAmAmAmUmAmGmCrArArGrUrUrArArArArUrArArGrGrCrUrArGrUrCrCrGrUrUrArUrCrAmAmCmUmUmGmAmAmAmAmAmGmUmGmGmCmAmCmCmGmAmGmUmCmGmGmUmGmCmU*mU*mU*mU
B3: G000499: TTR sgRNA modified sequence, Human, SEQ ID No. 106; guide sequence of CR005303 (nucleic acid)
guide: mU*mG*mA*rArUrCrCrArArGrUrGrUrCrCrUrCrUrGrArGrUrUrUrUrArGrAmGmCmUmAmGmAmAmAmUmAmGmCrArArGrUrUrArArArArUrArArGrGrCrUrArGrUrCrCrGrUrUrArUrCrAmAmCmUmUmGmAmAmAmAmAmGmUmGmGmCmAmCmCmGmAmGmUmCmGmGmUmGmCmU*mU*mU*mU
B4: G000502: TTR Cyno specific sgRNA modified sequence, SEQ ID No. 114; guide sequence of CR000689; cross homologous between mouse and cyno (nucleic acid)
guide: mA*mC*mA*rCrArArArUrArCrCrArGrUrCrCrArGrCrGrGrUrUrUrUrArGrAmGmCmUmAmGmAmAmAmUmAmGmCrArArGrUrUrArArArArUrArArGrGrCrUrArGrUrCrCrGrUrUrArUrCrAmAmCmUmUmGmAmAmAmAmAmGmUmGmGmCmAmCmCmGmAmGmUmCmGmGmUmGmCmU*mU*mU*mU
B5: G000482: TTR sgRNA modified sequence, Human, SEQ ID No. 89; guide sequence of CR003365 (nucleic acid)
guide: mU*mG*mU*rArGrArArGrGrGrArUrArUrArCrArArArGrGrUrUrUrUrArGrAmGmCmUmAmGmAmAmAmUmAmGmCrArArGrUrUrArArArArUrArArGrGrCrUrArGrUrCrCrGrUrUrArUrCrAmAmCmUmUmGmAmAmAmAmAmGmUmGmGmCmAmCmCmGmAmGmUmCmGmGmUmGmCmU*mU*mU*mU
B6: G000488: TTR sgRNA modified sequence, Human, SEQ ID No. 95; guide sequence of CR003346 (nucleic acid)
guide: mA*mA*mA*rGrUrUrCrUrArGrArUrGrCrUrGrUrCrCrGrGrUrUrUrUrArGrAmGmCmUmAmGmAmAmAmUmAmGmCrArArGrUrUrArArArArUrArArGrGrCrUrArGrUrCrCrGrUrUrArUrCrAmAmCmUmUmGmAmAmAmAmAmGmUmGmGmCmAmCmCmGmAmGmUmCmGmGmUmGmCmU*mU*mU*mU
B7: G000486: TTR sgRNA modified sequence, Human, SEQ ID No. 93; guide sequence of CR003339 (nucleic acid)
guide: mA*mC*mA*rCrArArArUrArCrCrArGrUrCrCrArGrCrArGrUrUrUrUrArGrAmGmCmUmAmGmAmAmAmUmAmGmCrArArGrUrUrArArArArUrArArGrGrCrUrArGrUrCrCrGrUrUrArUrCrAmAmCmUmUmGmAmAmAmAmAmGmUmGmGmCmAmCmCmGmAmGmUmCmGmGmUmGmCmU*mU*mU*mU
B8: G000489: TTR sgRNA modified sequence, Human, SEQ ID No. 96; guide sequence of CR003344 (nucleic acid)
guide: mU*mU*mU*rGrArCrCrArUrCrArGrArGrGrArCrArCrUrGrUrUrUrUrArGrAmGmCmUmAmGmAmAmAmUmAmGmCrArArGrUrUrArArArArUrArArGrGrCrUrArGrUrCrCrGrUrUrArUrCrAmAmCmUmUmGmAmAmAmAmAmGmUmGmGmCmAmCmCmGmAmGmUmCmGmGmUmGmCmU*mU*mU*mU

Assays:
TTR = assay: EC50 and maximum editing in primary human hepatocytes treated with LNP formulated U-depleted Spy Cas9 mRNA and sgRNAs (Tables 19, 21); assay type: cell-based; design: key: % of sequence reads with indels or substitutions over total reads; details: dose response
Experimental: Primary liver hepatocytes. Primary human liver hepatocytes (PHH) and primary cynomolgus liver hepatocytes (PCH) (Gibco) were cultured per the manufacturer's protocol (Invitrogen, protocol 11.28.2012). In brief, the cells were thawed and resuspended in hepatocyte thawing medium with supplements (Gibco, Cat. CM7000) followed by centrifugation at 100 g for 10 minutes for human and 80 g for 4 minutes for cyno. The supernatant was discarded and the pelleted cells resuspended in hepatocyte plating medium plus supplement pack (Invitrogen, Cat. A1217601 and CM3000). Cells were counted and plated on Bio-coat collagen I coated 96-well plates (ThermoFisher, Cat. 877272) at a density of 33,000 cells/well for human or 60,000 cells/well for cyno (or 65,000 cells/well when assaying effects on TTR protein, described further below). Plated cells were allowed to settle and adhere for 6 or 24 hours in a tissue culture incubator at 37° C. and 5% CO2 atmosphere. After incubation cells were checked for monolayer formation and media was replaced with hepatocyte culture medium with serum-free supplement pack (Invitrogen, Cat. A1217601 and CM4000).
For LNPs prepared using the cross-flow technique, the LNPs were formed by impinging jet mixing of the lipid in ethanol with two volumes of RNA solutions and one volume of water. The lipid in ethanol is mixed through a mixing cross with the two volumes of RNA solution. A fourth stream of water is mixed with the outlet stream of the cross through an inline tee. (See WO2016010840 FIG. 2.) The LNPs were held for 1 hour at room temperature, and further diluted with water (approximately 1:1 v/v). Diluted LNPs were concentrated using tangential flow filtration on a flat sheet cartridge (Sartorius, 100 kD MWCO) and then buffer exchanged by diafiltration into 50 mM Tris, 45 mM NaCl, 5% (w/v) sucrose, pH 7.5 (TSS). Alternatively, the final buffer exchange into TSS was completed with PD-10 desalting columns (GE). If required, formulations were concentrated by centrifugation with Amicon 100 kDa centrifugal filters (Millipore). The resulting mixture was then filtered using a 0.2 μm sterile filter. The final LNP was stored at 4° C. or −80° C. until further use.
To quantitatively determine the efficiency of editing at the target location in the genome, sequencing was utilized to identify the presence of insertions and deletions introduced by gene editing.
Primers were designed around the target site within the gene of interest (e.g. TTR), and the genomic area of interest was amplified.
Additional PCR was performed per the manufacturer's protocols (Illumina) to add chemistry for sequencing. The amplicons were sequenced on an Illumina MiSeq instrument. The reads were aligned to a reference genome (e.g., the human reference genome (hg38), the cynomologus reference genome (mf5), the rat reference genome (rn6), or the mouse reference genome (mm10)) after eliminating those having low quality scores. The resulting files containing the reads were mapped to the reference genome (BAM files), where reads that overlapped the target region of interest were selected and the number of wild type reads versus the number of reads which contain an insertion, substitution, or deletion was calculated.
The editing percentage (e.g., the “editing efficiency” or “percent editing” or “indel frequency”) is defined as the total number of sequence reads with insertions/deletions (“indels”) or substitutions over the total number of sequence reads, including wild type.
Lipid nanoparticle formulations of modified sgRNAs targeting human TTR and the cyno matched sgRNA sequences were tested on primary human hepatocytes and primary cyno hepatocytes in a dose response curve. Primary human and cyno hepatocytes were plated as described in Example 1. Both cell lines were incubated at 37° C., 5% CO2 for 24 hours prior to treatment with LNPs. […]

human TTR sequence = assay: Liver editing in humanized TTR mice dosed with LNP formulations (Table 26); assay type: in vivo, mouse
TTR mRNA = TTR mRNA knockdown in primary human hepatocytes by quantitative PCR (Tables 34, 35); assay type: cell-based; details: TTR mRNA in PHH, 96 hours after treatment, vs untreated control
Experimental: In one experiment, PHH were cultured and treated with LNPs comprising Cas9 mRNA (SEQ ID NO:1) and a gRNA of interest (See FIG. 29, Table 34), as described in Example 4. The LNPs were prepared using the cross-flow procedure described above and purified and concentrated using PD-10 columns and Amicon centrifugal filter units, respectively. The LNPs were formulated with an N:P ratio of 6.0 and contained Lipid A, Cholesterol, DSPC, and PEG2k-DMG in a 50:38:9:2 molar ratio, respectively. The LNPs comprised a gRNA:mRNA ratio of 1:2, and the cells were treated at a dose of 300 ng (with respect to the amount of mRNA cargo delivered).
(§1) Ninety-six (96) hours following LNP treatment (with biological triplicates for each condition), mRNA was purified from PHH cells using the Dynabeads mRNA DIRECT Kit (ThermoFisher Scientific) according to the manufacturer's protocol. Reverse Transcription (RT) was performed with Maxima reverse transcriptase (ThermoFisher Scientific) and a poly-dT primer. The resulting cDNA was purified with Ampure XP Beads (Agencourt). For Quantitative PCR, 2% of the purified cDNA was amplified with Taqman Fast Advanced Mastermix and 3 Taqman probe sets, TTR (Assay ID: Hs00174914_m1), GAPDH (Assay ID: Hs02786624_g1), and PPIB (Assay ID: Hs00168719_m1). The assays were run on the QuantStudio 7 Flex Real Time PCR System according to the manufacturer's instructions (Life Technologies). Relative expression of TTR mRNA was calculated by normalizing to the endogenous controls (GAPDH and PPIB) individually, and then averaged.
In a separate experiment, TTR mRNA knockdown was evaluated following treatment with LNPs comprising G000480, G000486, and G000502. The LNPs were formulated and PHH were cultured and treated with the LNPs, each as described in the experiment above in this Example with the exception that the cells were treated at a dose of 100 ng (with respect to the amount of mRNA cargo delivered).
as §1, with “(single treatment” for “(with biological triplicates”, “the High Capacity cDNA Reverse Transcription Kit” for “Maxima reverse transcriptase”, “according to the manufacturer's instructions.” for “and a poly-dT primer. The resulting cDNA was purified with Ampure XP Beads (Agencourt).”, “the” for “the purified”

[1] = Table 19, LNP with U-depleted Spy Cas9 mRNA and human specific sgRNAs
[2] = 1, 0.3, 0.1, or 0.03 mg/kg, Cas9 mRNA (SEQ ID NO: 1) 1:1 by weight to guide, FIG. 26A
[3] = 1, 0.3, or 0.1 mg/kg, Cas9 mRNA (SEQ ID NO: 1) 1:2 by weight to guide, FIG. 28A
[4] = LNP dose 100 ng mRNA cargo, separate experiment
[5] = LNP dose 300 ng mRNA cargo, gRNA:mRNA 1:2, biological triplicates
[6] = 1, 0.3, or 0.1 mg/kg, Cas9 mRNA (SEQ ID NO: 1) 1:1 by weight to guide, FIG. 27A

Molecule	Max Editing (TTR; [1])	Liver editing, dose response (human TTR sequence; [2])	Liver editing, dose response (human TTR sequence; [3])	Avg % Knockdown (TTR mRNA; [4])	Avg % Knockdown (TTR mRNA; [5])	Liver editing, dose response (human TTR sequence; [6])	Max Editing (TTR; Table 21, LNP with U-depleted Spy Cas9 mRNA and cyno specific sgRNAs)
B1	98.69	A dose response for both editing and serum TTR levels was evident	A dose response for both editing and serum TTR levels was evident	95.61%	95.19%	–	–
B2	87.05	–	A dose response for both editing and serum TTR levels was evident	–	91.39%	A dose response for both editing and serum TTR levels was evident	–
B3	96.31	–	A dose response for both editing and serum TTR levels was evident	–	91.38%	A dose response for both editing and serum TTR levels was evident	–
B4	–	A dose response for both editing and serum TTR levels was evident	A dose response for both editing and serum TTR levels was evident	90.94%	–	–	91.50
B5	97.02	–	–	–	82.31%	A dose response for both editing and serum TTR levels was evident	–
B6	95.83	A dose response for both editing and serum TTR levels was evident	–	–	92.77%	–	–
B7	–	–	A dose response for both editing and serum TTR levels was evident	97.36%	–	A dose response for both editing and serum TTR levels was evident	–
B8	86.33	A dose response for both editing and serum TTR levels was evident	–	–	91.85%	–	–
